# From article PMC12221982, “The structure of the complete extracellular bacterial flagellum reveals the mechanism of flagellin incorporation” (Nature Microbiology, 2025)
# B1: FlgE hook protein (S. enterica) (natural protein)
# chain: MSFSQAVSGLNAAATNLDVIGNNIANSATYGFKSGTASFADMFAGSKVGLGVKVAGITQDFTDGTTTNTGRGLDVAISQNGFFRLVDSNGSVFYSRNGQFKLDENRNLVNMQGMQLTGYPATGTPPTIQQGANPAPITIPNTLMAAKSTTTASMQINLNSTDPVPSKTPFSVSDADSYNKKGTVTVYDSQGNAHDMNVYFVKTKDNEWAVYTHDSSDPAATAPTTASTTLKFNENGILESGGTVNITTGTINGATAATFSLSFLNSMQQNTGANNIVATNQNGYKPGDLVSYQINNDGTVVGNYSNEQEQVLGQIVLANFANNEGLASQGDNVWAATQASGVALLGTAGSGNFGKLTNGALEASNVDLSKELVNMIVAQRNYQSNAQTIKTQDQILNTLVNLR
# notes: FlgE, flagellar hook protein of Salmonella enterica subsp. enterica serovar Typhimurium LT2; […]; There are 13 copies in the HFJ model; source: endogenous, S. enterica strain EM16009; part of purified short flagella
# B2: FlgK hook-filament junction protein (C. jejuni) (natural protein)
# chain: MGIFGTLYTGVTGLKASEVQIATTGNNISNANATFYTRQRVVQTTNGYITTGGVQVGTGTAVESIVRLHDEYSYYKLKGASTQLEYTKYMASTLQEIAQRFPDLQNTGILQDLENYNKAWNDFASNPNENATKIALVKASQTLTESVNNTFATLDKIQKKVNDDIKNTVDEINRIGEEIATINKQIYGQEALPTEHANELRDRRDELELTLSKLVSAVASKNEINQDNRLDTTITDPGHQYNLSIEGFSIVDGINFHPLKLDYDDKNKSYSIYYETPDEKVRDLTAKISGGQLGAQLDLRGRNYSKSEGKYEDGIIQGYMDSLDTFAKTMINETNNLYASSAKSSVTSDYLSGLKGDIPLVNYDRTIQPGSFDIVIYDDKGDKKLTKTITIDVNTTMNDIMRQINANTDDNDNKNSNDDVDDHINASFSYDAKTGDGLFQINAKSGFKVAIEDKGTNFAGAFSIGGFFSGTDASDMKVKDSILNDPSTVRASSNGVDSGNDMANKIIQLQYKKVNFYNEDGTIDNLTMEEYYRKLTGKIASDGENNNVVNSSNETLYNSVYSEYQSKSGVNTNEELAALIQYQSSYGAAAKIVSTVDQMLDTLLGLKS
# notes: model built from an AlphaFold model; Eleven subunits form the proximal layer of the HFJ; also called C. jejuni FlgK; source: endogenous, C. jejuni ΔflhG ΔflaAB minicells, imaged in situ
# B3: FliD filament cap protein (S. enterica) (natural protein)
# chain: MASISSLGVGSNLPLDQLLTDLTKNEKGRLTPITKQQSANSAKLTAYGTLKSALEKFQTANTALNKADLFKSTVASSTTEDLKVSTTAGAAAGTYKINVTQLAAAQSLATKTTFATTKEQLGDTSVTSRTIKIEQPGRKEPLEIKLDKGDTSMEAIRDAINDADSGIAASIVKVKENEFQLVLTANSGTDNTMKITVEGDTKLNDLLAYDSTTNTGNMQELVKAENAKLNVNGIDIERQSNTVTDAPQGITLTLTKKVTDATVTVTKDDTKAKEAIKSWVDAYNSLVDTFSSLTKYTAVEPGEEASDKNGALLGDSVVRTIQTGIRAQFANSGSNSAFKTMAEIGITQDGTSGKLKIDDDKLTKVLKDNTAAARELLVGDGKETGITTKIATEVKSYLADDGIIDNAQDNVNATLKSLTKQYLSVSNSIDETVARYKAQFTQLDTMMSKLNNTSSYLTQQFTAMNKS
# notes: FliD, flagellar filament cap protein of Salmonella enterica subsp. enterica serovar Typhimurium LT2; domains D0 to D3; […]; Five subunits form the pentameric cap at the distal end of the filament; also called FliD cap; filament cap complex; source: endogenous, S. enterica strain EM16009; part of purified short flagella (DDM lysis, ultracentrifugation)
# B4: FlgL hook-filament junction protein (S. enterica) (natural protein)
# chain: MRISTQMMYEQNMSGITNSQAEWMKLGEQMSTGKRVTNPSDDPIAASQAVVLSQAQAQNSQYALARTFATQKVSLEESVLSQVTTAIQTAQEKIVYAGNGTLSDDDRASLATDLQGIRDQLMNLANSTDGNGRYIFAGYKTEAAPFDQATGGYHGGEKSVTQQVDSARTMVIGHTGAQIFNSITSNAVPEPDGSDSEKNLFVMLDTAIAALKTPVEGNNVEKEKAAAAIDKTNRGLKNSLNNVLTVRAELGTQLSELSTLDSLGSDRALGQKLQMSNLVDVDWNSVISSYVMQQAALQASYKTFTDMQGMSLFQLNR
# notes: FlgL, hook-filament junction protein (distal layer) of Salmonella enterica subsp. enterica serovar Typhimurium LT2; […]; Eleven subunits form the distal layer of the hook-filament junction; also called HFJ; FlgKL; source: endogenous, S. enterica strain EM16009; part of purified short flagella
# B5: FlgL hook-filament junction protein (C. jejuni) (natural protein)
# chain: MRITNKLNFTNSVNNSMGGQSALYQISQQLASGLKIQNSYEDASTYIDNTRLEYEIKTLEQVKESTSRAQEMTQNSMKALQDMVKLLEDFKVKVTQAASDSNSQTSREAIAKELERIKESIVQLANTSVNGQYLFAGSQVANKPFDSNGNYYGDKNNINVVTGAGTESPYNIPGWDLFFKADGDYKKQISTNVSFTDNRWDLNKDPDKTKYLTGDSKWQQLIGQGYVKDNSLDADKDFEYDDSKLDFPPTTLYVQGTKPDGTSFKSAVLVKPEDTLEDVMENIGALYGNTPNNKVVEVSMNDSGQIQITDLKQGNNKLDFHAVAFTPQADTKDELKNIIEAANQEGISMNEVTNRVMQAATAAPSNGDITKLNNPVTVTINNQQFTIDLKQTDFIKSKMTDTDGNAANGADYDNVYFEKNGNTVYGNVSQVIKGSNAYATDSTKLSEVMAGDSLNGTTLNLKVNSKGGNSYDVTINLQTSTVSYPDPNNPGQTISFPIMHTNPATGNSGVVTGSNDITYGQINDIIGMFAADKIPTTTIQANNGQINNADYTQIQQLMKDSQATVDVSMDYKGRISVTDKLSSGTNIEISLSDSQSGQFPAPPFTTTSTVQNGPNFSFSANNSLTIDEPNVDIIKDLDSMIDAVLKGNMRADSESENPRNTGMQGALERLDHLADHVSKLNTTMGAYHNTIEGVNTRTSFLSVNVQSIKSNVIDVDYGEAMMNLMQVQLAYQASLKASTTISQLSLLNYM
# notes: has a bulky D2 domain; model built from an AlphaFold model; Eleven subunits form the distal layer of the HFJ; also called C. jejuni FlgL; source: endogenous, C. jejuni ΔflhG ΔflaAB minicells, imaged in situ
# B6: FliD filament cap protein (C. jejuni) (natural protein)
# chain: MAFGSLSSLGFGSGVLTQDTIDKLKEAEQKARIDPYTKKIEENTTKQKDLTEIKTKLLSFQTAVSSLADATVFAKRKVVGSISDNPPASLTVNSGVALQSMNINVTQLAQKDVYQSKGLANDGGFVNAQLNGTADLTFFSNGKEYTVTVDKNTTYRDLADKINEASGGEIVAKIVNTGEKGTPYRLTLTSKETGEDSAISFYAGKKDSNGKYQKDINAEKIFDDLGWGLDVSASIDPDKDKKGYGIKDASLHIQTAQNAEFTLDGIKMFRSSNTVTDLGVGMTLTLNKTGEINFDVQQDFEGVTKAMQDLVDAYNDLVTNLNAATDYNSETGTKGTLQGISEVNSIRSSILADLFDSQVVDGTTEDANGNKVNTKVMLSMQDFGLSLNDAGTLSFDSSKFEQKVKEDPDSTESFFSNITKYEDINHTGEVIKTGSLSKYLNSNGGNTNGLEFKPGDFTIVFNNQTYDLSKNSDGTNFKLTGKTEEELLQNLANHINSKGIEGLKVKVESYNQNNVTGFRLNFSGDGSSDFSIKGDANILKELGLSDVNITSKPIEGKGIFSKLKATLQEMTGKDGSITKYDESLTNDIKSLNTSKDSTQAMIDTRYDTMANQWLQYESILNKLNQQLNTVTNMINAANNSNN
# notes: has an additional domain D4; model built from an AlphaFold model; Five subunits form the pentameric cap on the HFJ; also called C. jejuni FliD; FliD cap of C. jejuni; source: endogenous, C. jejuni ΔflhG ΔflaAB minicells, imaged in situ
# B7: FlgK hook-filament junction protein (S. enterica) (natural protein)
# chain: MSSLINHAMSGLNAAQAALNTVSNNINNYNVAGYTRQTTILAQANSTLGAGGWIGNGVYVSGVQREYDAFITNQLRGAQNQSSGLTTRYEQMSKIDNLLADKSSSLSGSLQSFFTSLQTLVSNAEDPAARQALIGKAEGLVNQFKTTDQYLRDQDKQVNIAIGSSVAQINNYAKQIANLNDQISRMTGVGAGASPNDLLDQRDQLVSELNKIVGVEVSVQDGGTYNLTMANGYTLVQGSTARQLAAVPSSADPTRTTVAYVDEAAGNIEIPEKLLNTGSLGGLLTFRSQDLDQTRNTLGQLALAFADAFNAQHTKGYDADGNKGKDFFSIGSPVVYSNSNNADKTVSLTAKVVDSTKVQATDYKIVFDGTDWQVTRTADNTTFTATKDADGKLEIDGLKVTVGTGAQKNDSFLLKPVSNAIVDMNVKVTNEAEIAMASESKLDPDVDTGDSDNRNGQALLDLQNSNVVGGNKTFNDAYATLVSDVGNKTSTLKTSSTTQANVVKQLYKQQQSVSGVNLDEEYGNLQRYQQYYLANAQVLQTANALFDALLNIR
# notes: FlgK, hook-filament junction protein (proximal layer) of Salmonella enterica subsp. enterica serovar Typhimurium LT2; […]; Eleven subunits form the proximal layer of the hook-filament junction; also called HFJ; FlgKL; source: endogenous, S. enterica strain EM16009; part of purified short flagella
# Tests used:
# [1] = molecular target: the molecule itself; assay: cryo-EM structure; single-particle cryo-EM of the same purified short flagella of S. enterica EM16009; hook-filament junction map at 2.9 Å; model of 13 FlgE, 11 FlgK, 11 FlgL and 14 FliC
# [2] = molecular target: the molecule itself; assay: cryo-EM structure; single-particle cryo-EM of flagellar hook tips on C. jejuni ΔflhG ΔflaAB minicells (no filament); cap-HFJ map at 6.5 Å; model of 11 FlgK, 11 FlgL and 5 FliD fitted as rigid bodies and refined
# [3] = molecular target: T1, FliC flagellin (S. enterica) (S. enterica subsp. enterica serovar …, UniProt P06179 1-495); assay: cryo-EM structure; single-particle cryo-EM of purified short flagella of S. enterica EM16009 (buffer B: 10 mM Tris pH 8, 5 mM EDTA, 0.01% DDM); cap-filament map at 3.7 Å; model of 5 FliD and 17 FliC; details: both partners purified
# T1 construct: FliC, phase 1 flagellin of Salmonella enterica subsp. enterica serovar Typhimurium LT2; domains D0 to D3; […]; There are 17 copies in the cap model and 14 in the HFJ model; also called filament; source: S. enterica strain EM16009, chromosomal fliC under the inducible PtetA promoter (30 min AnTc); part of purified short flagella
# T1 sequence (P06179 whole entry): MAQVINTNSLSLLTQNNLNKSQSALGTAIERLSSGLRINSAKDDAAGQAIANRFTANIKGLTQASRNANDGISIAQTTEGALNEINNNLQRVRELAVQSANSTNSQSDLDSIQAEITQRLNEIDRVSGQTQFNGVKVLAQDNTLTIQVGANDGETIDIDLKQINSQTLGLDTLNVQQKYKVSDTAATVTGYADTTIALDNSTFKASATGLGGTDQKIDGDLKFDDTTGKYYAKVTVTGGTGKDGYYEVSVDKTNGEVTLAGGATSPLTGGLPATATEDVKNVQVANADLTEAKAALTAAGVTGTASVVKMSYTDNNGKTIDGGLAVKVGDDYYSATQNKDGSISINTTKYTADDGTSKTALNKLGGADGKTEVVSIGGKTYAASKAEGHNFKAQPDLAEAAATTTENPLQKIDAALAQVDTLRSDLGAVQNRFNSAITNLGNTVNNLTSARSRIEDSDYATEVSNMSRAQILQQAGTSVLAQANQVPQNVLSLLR
# [4] = molecular target: the molecule itself; assay: as above
# [5] = molecular target: T1, FliC flagellin (S. enterica); assay: cryo-EM structure; single-particle cryo-EM of the same purified short flagella of S. enterica EM16009; hook-filament junction map at 2.9 Å; model of 13 FlgE, 11 FlgK, 11 FlgL and 14 FliC; details: both partners purified
binder,measurement,setting,value
B1,binding result,[1],binds
B2,stoichiometry N,[2],11 subunits
B3,binding result,[3],binds
same,stoichiometry N,[4],5 subunits
B4,binding result,[5],binds
same,stoichiometry N,[1],11 subunits
B5,stoichiometry N,[2],11 subunits
B6,stoichiometry N,[2],5 subunits
B7,stoichiometry N,[1],11 subunits
